This note sets out measurements from US20240279281A1, “Peptide Inhibitors of Interleukin-23 Receptor” (Janssen Pharmaceutica NV, priority 2023, published 2024).

The target of the assay is T1, interleukin-23 receptor (IL-23R) (UniProt Q5VWK5 24-629, limits assumed).
T1 sequence (looked up): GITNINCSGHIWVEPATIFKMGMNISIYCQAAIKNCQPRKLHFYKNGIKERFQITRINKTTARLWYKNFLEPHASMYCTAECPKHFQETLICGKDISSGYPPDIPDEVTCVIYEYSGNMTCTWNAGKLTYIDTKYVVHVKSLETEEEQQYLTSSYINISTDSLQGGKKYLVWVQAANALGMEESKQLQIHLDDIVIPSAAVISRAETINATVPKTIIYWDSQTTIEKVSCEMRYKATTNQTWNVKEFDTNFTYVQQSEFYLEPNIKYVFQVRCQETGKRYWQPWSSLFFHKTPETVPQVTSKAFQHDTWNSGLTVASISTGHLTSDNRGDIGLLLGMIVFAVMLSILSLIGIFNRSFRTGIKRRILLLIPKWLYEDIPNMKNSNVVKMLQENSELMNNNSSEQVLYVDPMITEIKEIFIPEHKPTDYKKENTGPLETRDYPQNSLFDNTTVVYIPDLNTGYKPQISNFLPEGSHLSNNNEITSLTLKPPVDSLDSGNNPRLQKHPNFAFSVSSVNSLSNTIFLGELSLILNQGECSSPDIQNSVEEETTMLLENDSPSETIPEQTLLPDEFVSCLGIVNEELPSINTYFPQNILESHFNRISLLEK
Briefly: cell-based or functional assay.

Starred links: 1 amine or outer side, 2 acyl side, 3 side chain; linkers in the order of their positions; H or OH if unused. Positions of bridges follow the written chain, without caps; N, C: chain ends. Non-standard residues stand in square brackets, D forms with d. 2Nal6(Ph4(NMorph)) = 2-amino-3-(6-(4-morpholinophenyl)naphthalen-2-yl)propanoic acid, O=C([C@H](Cc1ccc2cc(-c3ccc(N4CCOCC4)cc3)ccc2c1)N[*:1])[*:2]; TMAPF = 5-(4-(2-amino-2-carboxyethyl)phenoxy)-N,N,N-trimethylpentan-1-aminium, C[N+](C)(C)CCCCCOc1ccc(C[C@H](N[*:1])C(=O)[*:2])cc1; AEF(G) = 2-amino-3-(4-(2-guanidinoethoxy)phenyl)propanoic acid, N=C(N)NCCOc1ccc(C[C@H](N[*:1])C(=O)[*:2])cc1; 6Br2Nal = 2-amino-3-(6-bromonaphthalen-2-yl)propanoic acid, O=C([C@H](Cc1ccc2cc(Br)ccc2c1)N[*:1])[*:2]; 6F2Nal = 2-amino-3-(6-fluoronaphthalen-2-yl)propanoic acid, O=C([C@H](Cc1ccc2cc(F)ccc2c1)N[*:1])[*:2]; Trp(7-(3-AcNH-Ph)) = CC(=O)Nc1cccc(-c2cccc3c(C[C@H](N)C(=O)O)c[nH]c23)c1; 2Nal(6-OH) = N[C@@H](Cc1ccc2cc(O)ccc2c1)C(=O)O; Trp(7-Me) = Cc1cccc2c(C[C@H](N)C(=O)O)c[nH]c12; 3Pal(5-Me) = Cc1cncc(C[C@H](N)C(=O)O)c1; AEF = NCCOc1ccc(C[C@H](N)C(=O)O)cc1; 3Pal = N[C@@H](Cc1cccnc1)C(=O)O; NMecPEG3a = not defined here; Pen = CC(C)(S)[C@H](N)C(=O)O; Thp = NC1(C(=O)O)CCOCC1; Sar = CNCC(=O)O

B1: SEQ ID NO: 287 (peptide)
peptide: Ac-[dR][Pen]NT[Trp(7-(3-AcNH-Ph))]K(Ac)[Pen][AEF][2Nal(6-OH)][Thp]EN[3Pal][Sar]-NH2
modifications: disulfide 2-7 (inferred)
For B1, the “IL23R Reporter Assay IC50” value is under 10 nM.

B2: SEQ ID NO: 444 (peptide)
peptide: Ac-[dR][Pen]NT[Trp(7-Me)]K(Ac)[Pen][AEF][6Br2Nal][Thp]EN[Thp]-NH2
modifications: disulfide 2-7 (inferred)
For the molecule B2, the “IL23R Reporter Assay IC50” value is at least 100 nM.

B3: SEQ ID NO: 428 (peptide)
peptide: Ac-[Pen]NT[Trp(7-Me)]K(Ac)[Pen][AEF][2Nal(6-OH)][Thp]EN[3Pal][Sar]-NH2
modifications: disulfide 1-6 (inferred)
With B3, the “IL23R Reporter Assay IC50” value is under 10 nM.

B4: SEQ ID NO: 432 (peptide)
peptide: Ac-[dR][Pen]NT[Trp(7-Me)]K(Ac)[Pen][AEF][2Nal6(Ph4(NMorph))][Thp]EN[Thp]-NH2
modifications: disulfide 2-7 (inferred)
Regarding B4, the “IL23R Reporter Assay IC50” value is at least 100 nM.

B5: SEQ ID NO: 407 (peptide)
peptide: Ac-[dR][Pen]NT[Trp(7-Me)]K(Ac)[Pen][AEF][6F2Nal][Thp]EN[3Pal][Sar]-NH2
modifications: disulfide 2-7 (inferred)
As to B5, the “IL23R Reporter Assay IC50” value is under 10 nM.

B6: SEQ ID NO: 11 (peptide)
peptide: XXNTXXXXXXENXX
modifications: MeCO-k(Me)3-Pen(3)-N-T-7(3NAcPh)W-K(Ac)-Pen(3)-AEF(G)-6OH2Nal-THP-E-N-5MePyridinAla-Sar-CONH2
Regarding B6, the “IL23R Reporter Assay IC50” value was under 10 nM.

B7: SEQ ID NO: 59 (peptide)
peptide: Ac-[dR][Pen]NT[Trp(7-Me)]K(Ac)[Pen][TMAPF][2Nal(6-OH)][Thp]EN[3Pal][Sar]-NH2
modifications: disulfide 2-7 (inferred)
Regarding B7, the “IL23R Reporter Assay IC50” value is under 10 nM.

B8: SEQ ID NO: 442 (peptide)
peptide: Ac-[dR][Pen]NT[Trp(7-Me)]K(Ac)[Pen][AEF][2Nal(6-OH)][Thp]EN[3Pal][Sar]-NH2
modifications: disulfide 2-7 (inferred)
On to B8, for which the “IL23R Reporter Assay IC50” value was under 10 nM.

B9: SEQ ID NO: 15 (peptide)
peptide: Ac-[dR][Pen]NT[Trp(7-(3-AcNH-Ph))]K(Ac)[Pen][AEF(G)][2Nal(6-OH)][Thp]EN[3Pal(5-Me)][Sar]-NH2
modifications: disulfide 2-7 (inferred)
Turning to B9, the “IL23R Reporter Assay IC50” value was under 10 nM.

B10: SEQ ID NO: 349 (peptide)
peptide: Ac-X[Pen]NT[Trp(7-Me)]K(Ac)[Pen][AEF][2Nal(6-OH)][Thp]EN[3Pal][Sar]-NH2
modifications: disulfide 2-7 (inferred); not fully specified (residue 1); printed as MeCO-k(d)-Pen(3)-N-T-7MeW-K(Ac)-Pen(3)-AEF-6OH2Nal-THP-E-N-3Pya-Sar-CONH2
Consider B10, for which the “IL23R Reporter Assay IC50” value was under 10 nM.

B11: SEQ ID NO: 319 (peptide)
peptide: cPEG3aCO-[Pen]NT[Trp(7-Me)]K(NMecPEG3a)[Pen][AEF][2Nal(6-OH)][Thp]EN[3Pal][Sar]-NH2
modifications: disulfide 1-6 (inferred); not fully specified; printed as cPEG3aCO-Pen(3)-N-T-7MeW-K(NMecPEG3a)-Pen(3)-AEF-6OH2Nal-THP-E-N-3Pya-Sar-CONH2; reading uncertain
Regarding B11, the “IL23R Reporter Assay IC50” value was under 10 nM.
